Numbering of substitutions follows the chain as printed. In names and notes the source's numbering stands. Where two headings read alike, the source gives them in different places.
What was measured:
[1] = biological target: T1, human soluble αvβ5 protein (extracellular domains of human αv and β5 integrin subunits) (human, UniProt P06756 31-992; P18084 24-719); experiment: ELISA, Fab blocking of 2 nM soluble αvβ5 binding to immobilized human plasma vitronectin
T1 construct: also called biotin-αvβ5; hsαvβ5
Description: Fab fragments of the four constructs of Example 6 were generated from the corresponding IgG1(N297Q) versions by digestion with papain. The ability of each Fab to block 2 nM soluble αvβ5 binding to immobilized human plasma vitronectin was determined by ELISA.

[2] = biological target: T1, human soluble αvβ5 protein …; experiment: ELISA, biotin-αvβ5 on streptavidin plate, unpurified antibody
Description: Solid-Phase αvβ5 Binding Assay (ELISA): A 96-well microtiter plate was precoated with streptavidin (Thermo Scientific Reacti-Bind StreptAvidin Coated High Binding Capacity plate) was used. Biotinylated soluble αvβ5 protein (2 μg/mL) in TBS with 1% BSA was added to the wells, and the plate was incubated for 1 hr at 25° C. The plate was washed with wash buffer (0.05% Tween-20 in PBS), and purified humanized ALULA antibody in TBS containing 1% BSA, 1 mM CaCl2, and 1 mM MgCl2 were added (50 μl/well). The plate was incubated for 1 hr at 25° C., washed, and then incubated for 1 hr with 50 μl/well of […] goat anti-human secondary antibody. Bound antibody was detected using 3,3′,5,5′-tetramethylbenzidine (TMB). Binding was indicated by the absorbency measured at 450 nm.
(§1) Screening of all combinations of heavy chain versions VH0, VH1, VH2, VH3, VH4, or VH5, with light chains VL0, VL1, VL2, or VL3 was carried out using unpurified proteins in conditioned cell media. The binding of each construct to biotin-conjugated human αvβ5 protein was determined using a solid-phase binding assay (ELISA) and by FACS, and the ability of each construct to block ligand binding was determined using a vitronectin cell adhesion assay (Table 1).

[3] = biological target: T2, human αvβ5 expressed on BaF3 cells (stably transfected with human αv and β5 subunits) (human, UniProt P06756 31-1048; P18084 24-799); experiment: cell-based or functional assay
[4] = biological target: T2, human αvβ5 expressed on BaF3 cells …; experiment: FACS on αvβ5-BaF3 cells, unpurified antibody
Description: (§2) FACS Binding Assay: Cells were washed one time in PBS, and then resuspended in FACS buffer (1×PBS, 1% BSA, 1 mM CaCl₂, and 1 mM MgCl₂). 1×10⁶ cells were then incubated on ice for 1 hr in FACS buffer containing the test antibody in a total volume of 50 μl. After incubation, the cells were washed two times with ice cold FACS buffer, resuspended in 50 μl of FACS buffer containing 3 μg/ml goat anti-mouse IgG AlexaFluor488 (Jackson ImmunoResearch), and incubated on ice for 30 min. The cells were then washed twice with ice cold FACS buffer and fixed in 1% PFA overnight. Cell aggregates were removed by filtering through 40 μm filter plates (Millipore) and binding of the labeled secondary antibody was monitored by flow cytometry using a FACS Calibur (BD Biosciences).
as §1

[5] = biological target: T1, human soluble αvβ5 protein …; experiment: ELISA, inhibition of soluble αvβ5 binding to coated human plasma vitronectin
Description: (§3) Vitronectin Inhibition ELISA: 96-well microtiter plates were coated with 5 μg/ml purified human plasma vitronectin diluted in PBS (50 μl/well) at 4° C. overnight. After the coating solution was removed, the plates were blocked with 300 μl/well of 1% BSA/TBS at 25° C. for 1 hr. The plate was washed with wash buffer (0.05% Tween-20 in TBS containing 1 mM CaCl₂ and 1 mM MgCl₂), and dilutions of humanized antibodies mixed with 1 nM soluble αvβ5 protein in TBS containing 1% BSA, 1 mM CaCl₂ and 1 mM MgCl₂ were added (50 μl/well) and incubated at 25° C. for 1 hr. The plate was washed 4 times with wash buffer in an automated plate washer and incubated sequentially with 50 μl/well of the anti-beta5 monoclonal antibody 15F11 (at 0.5 ug/mL) in for 1 hr at 25° C. in TBS containing 1% BSA, 1 mM CaCl₂ and 1 mM MgCl₂. After washing the plate 4 times with wash buffer, 100 μl/well of a 1:5000 dilution of a peroxidase-conjugated goat anti-mouse antibody in TBS containing 1% BSA, 1 mM CaCl₂ and 1 mM MgCl₂ were added and incubated for 1 hr at 25° C. Bound protein was detected using the TMB substrate and indicated by the absorbency measured at 450 nm.
In parallel, the humanized ALULA antibodies were tested in two adhesion assays. One measured the ability of each antibody to inhibit the binding of soluble αvβ5 to purified human plasma vitronectin. In the other assay, the murine BaF3 cell line was stably transfected with human αv and β5 subunits, and the adhesion of these cells to vitronectin was determined using a fluorescence endpoint.

[6] = biological target: T2, human αvβ5 expressed on BaF3 cells …; experiment: cell-based or functional assay; remark: listed apart in the source
[7] = biological target: T1, human soluble αvβ5 protein …; experiment: competition ELISA against 1 nM murine ALULA on coated soluble human αvβ5
Description: (§4) Competition ELISA: A 96-well microtiter plate was coated with 50 μl/well of 5 μg/mL soluble human αvβ5 protein at 4° C. overnight. The plate was washed with wash buffer (0.05% Tween-20 in PBS) four times in an automated plate washer. 300 μl/well of 1% BSA in PBS was added and incubated for 1 hr at 25° C. to block nonspecific binding. The plate was washed as above, and dilutions of humanized antibodies mixed with 1 nM murine ALULA in PBS containing 1% BSA, were added (50 μl/well). The plate was incubated for 1 hr at 25° C., washed, and then incubated for 40 minutes with 100 μl/well of […] goat anti-mouse antibody. Bound antibody was detected using 3,3′,5,5′-tetramethylbenzidine (TMB). Binding was indicated by the absorbency measured at 450 nm.
The binding of each construct to soluble, purified human αvβ5 protein was determined by a competition ELISA with murine ALULA (FIG. 4). […] The remaining constructs behaved similarly, with version H4/L2 showing the lowest IC50 value in this assay.

[8] = biological target: T2, human αvβ5 expressed on BaF3 cells …; experiment: FACS on BaF3-hu αvβ5 cells
Description: as §2
(§5) Based on the results described above in Example 4, four humanized ALULA constructs: VH2/VL2, VH4/VL0, VH4/VL2, and VH5/VL2, were selected for further testing. These VH/VL constructs were expressed as fusion proteins with the hybrid, aglycosylated IgG4.P (S228P)/IgG1 (N297Q) domain, and human kappa light chain domain, and purified from the conditioned medium of stably transfected CHO cells. Each humanized ALULA construct was assessed for binding using competition ELISA with murine ALULA and by FACS using human αvβ5-transfected BaF3 cells. Each humanized ALULA construct was also assessed for blocking binding/adhesion to vitronectin by ELISA or cell adhesion assays using BaF3 cells stably transfected with human or cynomolgous monkey αvβ5. The humanized ALULA constructs were compared to a chimeric form of ALULA comprising the murine heavy and light chain variable domains fused to human IgG1 heavy chain and human kappa light chain domains. The four humanized ALULA constructs behaved similarly in the assays, with H4/L2 generally having similar or slightly higher affinity/blocking potency than the other constructs (see, Table 3).

[9] = biological target: T1, human soluble αvβ5 protein …; experiment: αvβ5-vitronectin blocking ELISA
Description: as §3, §5

[10] = biological target: cynomolgus monkey αvβ5 expressed on BaF3 cells (cynomolgus monkey, UniProt A0A2K5WCD3 31-1048; A0A2K5UEB4 24-799); experiment: cell-based or functional assay
[11] = biological target: T2, human αvβ5 expressed on BaF3 cells …; experiment: cell-based or functional assay; remark: listed apart in the source
[12] = biological target: T1, human soluble αvβ5 protein …; experiment: ALULA competition ELISA on soluble human αvβ5
Description: as §4, §5

T2 sequence (P06756 31-1048 limits assumed, chain 1 of 2): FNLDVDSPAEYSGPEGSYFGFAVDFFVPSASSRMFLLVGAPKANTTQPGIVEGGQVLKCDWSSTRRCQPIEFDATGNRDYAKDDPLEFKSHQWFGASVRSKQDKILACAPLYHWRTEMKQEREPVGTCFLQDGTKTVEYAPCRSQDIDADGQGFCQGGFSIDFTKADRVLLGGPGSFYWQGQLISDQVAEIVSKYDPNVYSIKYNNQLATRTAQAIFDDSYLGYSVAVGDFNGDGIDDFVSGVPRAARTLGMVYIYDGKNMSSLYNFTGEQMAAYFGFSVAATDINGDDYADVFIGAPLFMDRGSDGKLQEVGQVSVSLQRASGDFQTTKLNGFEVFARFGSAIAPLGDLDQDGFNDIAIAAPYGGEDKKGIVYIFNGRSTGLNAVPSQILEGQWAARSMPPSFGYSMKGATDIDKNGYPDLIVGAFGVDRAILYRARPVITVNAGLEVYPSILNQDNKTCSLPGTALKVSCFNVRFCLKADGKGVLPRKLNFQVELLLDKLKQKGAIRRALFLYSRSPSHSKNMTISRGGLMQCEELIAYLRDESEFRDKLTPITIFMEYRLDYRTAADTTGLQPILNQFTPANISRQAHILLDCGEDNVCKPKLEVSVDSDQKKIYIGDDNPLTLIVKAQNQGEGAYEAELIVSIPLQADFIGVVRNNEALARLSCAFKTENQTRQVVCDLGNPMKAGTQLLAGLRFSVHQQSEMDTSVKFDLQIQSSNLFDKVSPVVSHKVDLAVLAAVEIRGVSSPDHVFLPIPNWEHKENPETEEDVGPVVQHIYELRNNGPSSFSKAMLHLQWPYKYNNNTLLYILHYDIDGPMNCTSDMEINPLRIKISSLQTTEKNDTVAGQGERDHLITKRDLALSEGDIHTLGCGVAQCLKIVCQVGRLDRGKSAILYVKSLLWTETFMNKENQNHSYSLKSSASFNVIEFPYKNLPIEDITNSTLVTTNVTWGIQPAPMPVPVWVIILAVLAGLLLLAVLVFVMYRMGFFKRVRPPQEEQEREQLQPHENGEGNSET
T2 sequence (P18084 24-799 limits assumed, chain 2 of 2): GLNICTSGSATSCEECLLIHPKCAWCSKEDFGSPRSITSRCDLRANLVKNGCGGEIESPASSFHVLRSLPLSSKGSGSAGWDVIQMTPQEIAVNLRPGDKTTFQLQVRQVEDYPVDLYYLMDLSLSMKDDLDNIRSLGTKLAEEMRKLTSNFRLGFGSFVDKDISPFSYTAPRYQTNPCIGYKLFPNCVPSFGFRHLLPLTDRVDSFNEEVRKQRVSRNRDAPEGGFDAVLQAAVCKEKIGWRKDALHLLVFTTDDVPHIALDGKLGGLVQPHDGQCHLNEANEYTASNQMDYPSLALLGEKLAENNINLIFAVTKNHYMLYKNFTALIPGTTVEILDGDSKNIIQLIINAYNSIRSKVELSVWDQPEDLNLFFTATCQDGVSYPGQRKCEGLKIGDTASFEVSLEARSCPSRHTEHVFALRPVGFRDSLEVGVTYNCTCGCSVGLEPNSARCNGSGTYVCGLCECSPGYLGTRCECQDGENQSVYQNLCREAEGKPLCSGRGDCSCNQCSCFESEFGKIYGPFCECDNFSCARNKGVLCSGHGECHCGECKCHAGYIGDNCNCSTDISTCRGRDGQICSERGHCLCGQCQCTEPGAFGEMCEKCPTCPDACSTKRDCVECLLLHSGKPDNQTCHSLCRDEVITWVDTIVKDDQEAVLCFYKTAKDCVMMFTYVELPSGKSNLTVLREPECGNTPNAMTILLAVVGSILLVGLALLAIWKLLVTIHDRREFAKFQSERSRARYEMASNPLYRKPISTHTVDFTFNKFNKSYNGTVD
T1 sequence (P06756 31-992 limits assumed, chain 1 of 2): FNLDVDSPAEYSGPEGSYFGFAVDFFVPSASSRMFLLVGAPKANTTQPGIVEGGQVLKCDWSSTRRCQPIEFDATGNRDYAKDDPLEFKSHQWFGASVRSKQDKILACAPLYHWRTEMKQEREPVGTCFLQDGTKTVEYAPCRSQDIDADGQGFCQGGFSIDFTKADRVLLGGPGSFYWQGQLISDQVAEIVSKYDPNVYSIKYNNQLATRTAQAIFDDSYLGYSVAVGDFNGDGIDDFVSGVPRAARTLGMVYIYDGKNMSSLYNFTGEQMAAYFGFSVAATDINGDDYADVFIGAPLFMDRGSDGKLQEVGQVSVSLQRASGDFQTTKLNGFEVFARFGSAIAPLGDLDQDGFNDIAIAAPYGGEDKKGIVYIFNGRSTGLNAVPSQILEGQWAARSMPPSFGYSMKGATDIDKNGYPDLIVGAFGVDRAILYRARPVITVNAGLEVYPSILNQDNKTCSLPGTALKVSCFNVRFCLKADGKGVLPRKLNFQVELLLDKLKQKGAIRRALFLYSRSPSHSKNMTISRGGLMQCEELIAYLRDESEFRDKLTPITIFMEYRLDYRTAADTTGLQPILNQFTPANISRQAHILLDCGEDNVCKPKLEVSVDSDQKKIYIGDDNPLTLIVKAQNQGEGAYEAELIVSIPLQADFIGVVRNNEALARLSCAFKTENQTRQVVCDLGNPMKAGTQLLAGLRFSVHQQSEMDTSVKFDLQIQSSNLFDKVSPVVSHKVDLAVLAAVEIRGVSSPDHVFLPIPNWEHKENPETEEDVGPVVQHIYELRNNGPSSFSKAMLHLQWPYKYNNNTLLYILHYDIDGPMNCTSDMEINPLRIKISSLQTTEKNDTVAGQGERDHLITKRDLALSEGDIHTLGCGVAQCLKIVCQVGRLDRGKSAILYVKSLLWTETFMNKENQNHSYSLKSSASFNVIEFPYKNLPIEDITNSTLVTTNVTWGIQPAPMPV
T1 sequence (P18084 24-719 limits assumed, chain 2 of 2): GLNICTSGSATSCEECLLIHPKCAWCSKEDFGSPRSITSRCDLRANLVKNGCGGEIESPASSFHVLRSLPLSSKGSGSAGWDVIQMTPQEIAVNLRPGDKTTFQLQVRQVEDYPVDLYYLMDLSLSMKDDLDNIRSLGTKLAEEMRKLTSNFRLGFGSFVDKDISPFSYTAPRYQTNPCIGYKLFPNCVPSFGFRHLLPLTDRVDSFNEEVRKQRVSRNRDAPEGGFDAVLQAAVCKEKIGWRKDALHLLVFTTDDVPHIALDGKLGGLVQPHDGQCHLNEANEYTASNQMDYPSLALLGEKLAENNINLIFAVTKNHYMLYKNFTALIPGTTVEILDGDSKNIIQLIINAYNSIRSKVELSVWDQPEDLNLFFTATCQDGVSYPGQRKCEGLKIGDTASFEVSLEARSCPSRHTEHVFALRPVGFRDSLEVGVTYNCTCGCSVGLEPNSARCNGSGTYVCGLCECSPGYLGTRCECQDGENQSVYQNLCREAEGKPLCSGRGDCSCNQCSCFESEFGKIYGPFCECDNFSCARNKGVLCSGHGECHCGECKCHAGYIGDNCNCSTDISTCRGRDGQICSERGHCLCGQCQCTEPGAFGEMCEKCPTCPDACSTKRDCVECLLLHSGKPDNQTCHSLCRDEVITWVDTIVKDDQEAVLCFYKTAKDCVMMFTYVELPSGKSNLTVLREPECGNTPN

B1: VH2/VL2 Fab fragment (Fab, V domains shown)
VH: EVQVVQSGGGLVKPGESLRLSCAASGYTFTSYWMHWVKQAPGKGLEWVGAIYPGNSDTSYNQKFKGKFTISADTSSNTAYLQMNSLKTEDTAVYYCTTTTYGYDWFAYWGQGTLVTVSS
VL: NIQMTQSPSSLSASVGDRVTMSCKSSQSVLYSSNQKNYLAWYQQKPGKSPKLLIYWASTRESGVPDRFTGSGSGTDFTLTISSLQPEDFATYYCHQYLSSLTFGQGTKLEIK
notes: also called H2/L2 (Fab source); H2L2 hIgG1 Fab
In the case of B1, the “Fold change (IC50 against mouse chimeric ALULA)” value (from here on “Fold change”) [1] is reported as 1.5 fold and the IC50 [1] is reported as 7.3 nM.

B2: VH4/VL0 Fab fragment (Fab, V domains shown)
VH: B1 VH with A23K, S76P
VL: B1 VL with N1D, L11V, M21I, S22T, S49A, D66S, T69S, L109V
notes: also called H4/L0 (Fab source); H4L0 hIgG1 Fab
In the case of B2, the “Fold change” value [1] is reported as 1.6 fold and the IC50 [1] is reported as 7.5 nM.

B3: VH5/VL1 Agly-hIgG1(T299A) (antibody, V domains shown)
VH: B1 VH with V5Q, E16G, A23K, F68A, I70L, D73V, S76P
VL: B1 VL with N1D, S22T, S49A, T69S
notes: also called H5/L1
With B3 the EC50 [2] was 0.3 nM, the “VN adhesion inhibition, αvβ5-BaF3 (IC50, nM)” value (“VN adhesion inhibition” below) [3] was 163 nM and the EC50 [4] was 147 nM. For the same binder, the IC50 [5] was 1.3 nM, the “VN adhesion inhibition” value [6] was 0.7 nM and the IC50 [7] was 3 nM.

B4: VH5/VL2 Agly-hIgG1(T299A) (antibody, V domains shown)
VH: B1 VH with V5Q, E16G, A23K, F68A, I70L, D73V, S76P
VL: B1 VL
notes: also called H5/L2 (Agly-IgG1)
In the case of B4, the EC50 [2] is reported as 0.4 nM, the “VN adhesion inhibition” value [3] is reported as 83.2 nM and the EC50 [4] is reported as 359 nM. For the same binder, the IC50 [5] was 1.3 nM, the “VN adhesion inhibition” value [6] was 0.9 nM and the IC50 [7] was 2 nM.

B5: VH5/VL2 Fab fragment (Fab, V domains shown)
VH: B1 VH with V5Q, E16G, A23K, F68A, I70L, D73V, S76P
VL: B1 VL
notes: also called H5/L2 (Fab source); H5L2 hIgG1 Fab
With B5 the “Fold change” value [1] was 1.4 fold and the IC50 [1] was 6.8 nM.

B6: VH2/VL2 Agly-IgG4.P (S228P)/IgG1 (N297Q) (antibody, V domains shown)
VH: B1 VH
VL: NIQMTQSPSSLSASVGDRVTMSCKSSQSVLYSSNQKNYLAWYQQKPGKSPKLLIYWASTRESGVPDRFTGSGSGTDFTLTISSLQPEDFATYYCHQYLSSLTFGQGTKLEIKR
notes: also called VH2/VL2 (Agly-IgG4P/G1); H2/L2
B6 was tested, and the EC50 [8] was 5.73 nM, the “Fold chg. (EC50 against mouse chimeric ALULA)” value [8] was 1.1 fold and the “Fold chg. (IC50 against mouse chimeric ALULA)” value [9] was 1.1 fold. The IC50 [9] was 1.74 nM, the “BaF3-cyno αvβ5 Cell adhesion to vitronectin (IC50, nM)” value [10] was 0.61 nM and the “BaF3-cyno αvβ5 Cell adhesion to vitronectin, Fold chg. (against mouse chimeric ALULA)” value [10] was 1 fold. For the same binder, the “BaF3-hu αvβ5 Cell adhesion to vitronectin (IC50, nM)” value [11] was 0.3 nM, the “BaF3-hu αvβ5 Cell adhesion to vitronectin, Fold chg. (against mouse chimeric ALULA)” value [11] was 1.8 fold and the “Fold chg. (IC50 against mouse chimeric ALULA)” value [12] was 1.4 fold. It also gave an IC50 [12] of 2.61 nM.

B7: VH4/VL0 Agly-IgG4.P (S228P)/IgG1 (N297Q) (antibody, V domains shown)
VH: B1 VH with A23K, S76P
VL: B6 VL with N1D, L11V, M21I, S22T, S49A, D66S, T69S, L109V
notes: also called VH4/VL0 (Agly-IgG4P/G1); H4/L0
B7 was tested, and the EC50 [8] was 2.52 nM, the “Fold chg. (EC50 against mouse chimeric ALULA)” value [8] was 0.5 fold and the “Fold chg. (IC50 against mouse chimeric ALULA)” value [9] was 1 fold. The IC50 [9] was 1.52 nM, the “BaF3-cyno αvβ5 Cell adhesion to vitronectin (IC50, nM)” value [10] was 0.43 nM and the “BaF3-cyno αvβ5 Cell adhesion to vitronectin, Fold chg. (against mouse chimeric ALULA)” value [10] was 0.7 fold. The “BaF3-hu αvβ5 Cell adhesion to vitronectin (IC50, nM)” value [11] was 0.09 nM, the “BaF3-hu αvβ5 Cell adhesion to vitronectin, Fold chg. (against mouse chimeric ALULA)” value [11] was 0.5 fold and the “Fold chg. (IC50 against mouse chimeric ALULA)” value [12] was 1 fold. The IC50 [12] was 1.84 nM.

B8: Mouse chimeric ALULA Fab fragment (Fab, V domains shown)
VH: EVQVQQSGTVLARPGASVKMSCKASGYTFTSYWMHWVKQRPGQGLEWIGAIYPGNSDTSYNQKFKGKAKLTAVTSPNTAYMELSSLTNEDSAVYYCTTTTYGYDWFAYWGQGTLVTVSA
VL: NIMMTQSPSSLTVSAGEKVTMSCKSSQSVLYSSNQKNYLAWYQQKPGQSPKLLIYWASTRESGVPDRFTGSGSGTDFTLTISSVQAEDLAVYYCHQYLSSLTFGAGTKLELK
notes: also called Mouse chimeric ALULA (Fab source)
In the case of B8, the IC50 [1] is reported as 4.8 nM.

— patent US20170362324A1 (Biogen, published 2017)
